Substitutions are numbered along the chain they refer to. Several values for one entry are separate records, joined by “and”; a condition that tells them apart may be missing. Equal entries are not always repeated.
B1: CD38VH1×CD28cvn×CD3low IgG4 (other)
VH 1: QVQLVQSGAEVVKPGASVKVSCKASGYTFTSYAMHWVKEAPGQRLEWIGYIYPGQGGTNYNQKFQGRATLTADTSASTAYMELSSLRSEDTAVYFCARTGGLRRAYFTYWGQGTLVTVSS
VL 1: DIVLTQSPATLSLSPGERATISCRASQSVSSYGQGFMHWYQQKPGQPPRLLIYGASSRATGIPARFSGSGSGTDFTLTISPLEPEDFAVYYCQQNKEDPWTFGGGTKLEIK
VH 2: QVQLQESGPGLVKPSQTLSLTCTVSGFSLSDYGVHWVRQPPGKGLEWLGVIWAGGGTNYNPSLKSRKTISKDTSKNQVSLKLSSVTAADTAVYYCARDKGYSYYYSMDYWGQGTTVTVSS
VL 2: DIVLTQSPASLAVSPGQRATITCRASESVEYYVTSLMQWYQQKPGQPPKLLIFAASNVESGVPARFSGSGSGTDFTLTINPVEANDVANYYCQQSRKVPYTFGQGTKLEIK
VH 3: QVQLVESGGGVVQPGRSLRLSCAASGFTFTKAWMHWVRQAPGKGLEWVAQIKDKSNSYATYYADSVKGRFTISRDNSKNTLYLQMNSLRAEDTAVYYCRGVYYALSPFDYWGQGTLVTVSS
VL 3: DIVMTQTPLSLSVTPGQPASISCKSSQSLVHNNGNTYLSWYLQKPGQSPQLLIYKVSNRFSGVPDRFSGSGSGTDFTLKISRVEAEDVGVYYCGQGTQYPFTFGGGTKVEIK
notes: also called CD38VH1×CD28evn×CD3low IgG4
B2: mAb3 (antibody, human IgG1, kappa, V domains shown)
VH: B1 VH 1 with Y32F, A33N, Q55N
VL: DIVLTQSPATLSLSPGERATISCRASESVDSYGNGFMHWYQQKPGQPPRLLIYLASSRATGIPARFSGSGSGTDFTLTISPLEPEDFAVYYCQQNKEDPWTFGGGTKLEIKR
notes: also called antiCD38_C2-CD38-1_VH3-VL3
B3: CD38VH1×CD28sup×CD3mid IgG4 (other)
VH 1: B1 VH 1
VL 1: B1 VL 1
VH 2: QVQLVQSGAEVVKPGASVKVSCKASGYTFTSYYIHWVRQAPGQGLEWIGSIYPGNVNTNYAQKFQGRATLTVDTSISTAYMELSRLRSDDTAVYYCTRSHYGLDWNFDVWGKGTTVTVSS
VL 2: DIQMTQSPSSLSASVGDRVTITCQASQNIYVWLNWYQQKPGKAPKLLIYKASNLHTGVPSRFSGSGSGTDFTLTISSLQPEDIATYYCQQGQTYPYTFGQGTKLEIK
VH 3: B1 VH 3 with G44Q, N76D
VL 3: B1 VL 3 with G34A, L51S, G105S
notes: also called anti-CD38(VH1)×CD28(sup)×CD3(mid)
B4: mAb5 (antibody, human IgG1, kappa, V domains shown)
VH: B1 VH 1 with V20M, Y32F, A33N, Q55N, L83I
VL: B2 VL
notes: also called antiCD38_C2-CD38-1_VH6-VL3
B5: CD38VH1×CD28sup×CD3low IgG4 (other)
VH 1: B1 VH 1
VL 1: B1 VL 1
VH 2: B3 VH 2
VL 2: B3 VL 2
VH 3: B1 VH 3
VL 3: B1 VL 3

Key:
[1] = molecular target: T1, recombinant human CD38 (SPR of Example 4) (human, UniProt P28907 45-300, limits assumed); test: SPR; KD rounded to an integer; second value of the pair, taken for CD3low
Method: (§1) Surface regenerate was conducted by injecting 10 mM Glycine-HCl pH 2.5 for 60 sec at 30 μl/min. […] Equilibrium dissociation constant (KD) was calculated using association rate constant (kₒₙ) and dissociation rate constant (koff).

[2] = molecular target: human CD28 (SPR of Example 4) (human, UniProt P10747 19-152, limits assumed); test: as above
Method: as §1

[3] = molecular target: T1, recombinant human CD38 (SPR of Example …); test: SPR (column 'KD value against rec. protein by SPR (nM)'); second value of the pair, taken for CD3low
[4] = molecular target: T2, human CD3 (Cambridge Biologics LLC Cat #03-01-0051) (human, UniProt P07766 23-126; P09693 23-116); test: ELISA on coated hCD3 γε IgG4; the arrow ends on the second curve from the right, which carries the small markers
T2 construct: the reagent may hold further CD3 chains
Method: (§2) The binding properties of the purified antibodies were analyzed either using ELISA or SPR methods. For ELISA, corresponding antigens for each binding site in the trispecific binding protein were used to coat a 96-well Immuno Plate (Nunc 439454, Thermo Fisher Scientific) overnight at 4° C. using 2 μg/ml each antigen m PBS(pH7.4). The coated plate was blocked using 5% skim milk 12% BSA in PBS for one hour at RT, followed by washing with PBS+[…] three times (Aqua Max 400, Molecular Devices). Serial dilution of antibodies (trispecific and control Abs) were prepared and added onto the ELISA plates (100 μl/well in duplicate), incubated at RT for one hour, followed by washing 5 times with PBS+0.25% Tween 20.
(§3) The reaction was terminated by adding 50 μl 1M H₂SO₄, and OD₄₅₀ was measured using SpectraMax M5 (Molecular Devices) and analyzed using SoltMax Pro6.3 software (Molecular Devices). The final data was transferred to GraphPad Prism software (GraphPad Software, CA. USA), and plotted as shown. EC50 was calculated using the same software.

hCD38-his (SEQ ID NO: 2) [5] = molecular target: T3, hCD38-his (SEQ ID NO: 2) (human, UniProt P28907 45-300); test: ELISA on hCD38::Histag
T3 construct: His-tagged soluble protein derived from isoform A; also called human CD38-histag; hCD38::Histag

hCD38-his (SEQ ID NO: 2) [6] = molecular target: T3, hCD38-his (SEQ ID NO: 2); test: ELISA (column ELISA EC50 nM, hu)
cCD38-his (SEQ ID NO: 4) [7] = molecular target: T4, cCD38-his (SEQ ID NO: 4) (cynomolgus monkey, UniProt Q5VAN0 46-301); test: ELISA on cynoCD38::Histag [Cont.]
T4 construct: His-tagged soluble protein; also called cyno CD38-histag; cynoCD38::Histag

cCD38-his (SEQ ID NO: 4) [8] = molecular target: T4, cCD38-his (SEQ ID NO: 4); test: ELISA (column ELISA EC50 nM, cyno)
[9] = molecular target: T5, human CD38 expressed on the cell surface (human, UniProt P28907 1-300); test: flow cytometry (column FACS EC50 nM, hu)
T5 construct: whole, on cells; also called hCD38-expressing cells; huCD38
Method: (§4) The recombinant cell line was described by J. Deckket et al. 2014 Clin Cancer Res 20:4574-4583. […] Antibody binding was evaluated after centrifugation and resuspension of cells by adding 200 μL/well PBS 1% BSA and read using Guava® easvCyte™ 8HT Flow Cytometry System. Apparent KD and EC50 values were estimated using BIOST@T-BINDING and BIOST@T-SPEED software, respectively.

[10] = molecular target: T5, human CD38 expressed on the cell surface; test: flow cytometry on preB::300.19 cells, apparent KD
Method: as §4

[11] = molecular target: T6, cynomolgus monkey CD38 expressed on the cell surface (cynomolgus monkey, UniProt Q5VAN0 1-301); test: flow cytometry on preB::300.19 cells, apparent KD
T6 construct: whole, on cells; also called cCD38-expressing cells
Method: as §4

[12] = molecular target: T6, cynomolgus monkey CD38 expressed on the …; test: flow cytometry (column FACS EC50 nM, cyno)
Method: as §4

[13] = molecular target: T5, human CD38 expressed on the cell surface; test: flow cytometry (FACS) on 300.19 PreB hCD38 cells
Method: as §4

hCD38-his (SEQ ID NO: 2) [14] = molecular target: T3, hCD38-his (SEQ ID NO: 2); test: SPR, mAb captured via anti-human Fc, soluble CD38-his injected
Method: (§5) The binding properties of the anti-huCD38 mabs were evaluated using a BIAcore 2000 (BIAcore Inc., Uppsala, Ni). […] The surface was regenerated between injections using 30 μL of 50 mM NaOH-1 M NaCl. Individual sensorgrams wore analyzed using BIAsimulation software.

cCD38-his (SEQ ID NO: 4) [15] = molecular target: T4, cCD38-his (SEQ ID NO: 4); test: as above
Method: as §5

[16] = molecular target: T6, cynomolgus monkey CD38 expressed on the …; test: flow cytometry (FACS) on 300.19 PreB cynoCD38 cells [Cont.]
Method: as §4

[17] = molecular target: human CD38 (Cambridge Biologics LLC Cat #03-01-0369) (human, UniProt P28907 43-300); test: ELISA on coated hCD38-His
Method: as §2, §3

[18] = molecular target: T5, human CD38 expressed on the cell surface; test: flow cytometry on 300.19 huCD38 cells (PréB hCD38)
Method: as §4, with “Clin.” for “Clin”, “μl/well” for “μL/well”, “easyCyte™” for “easvCyte™”, “BIOST®T-BINDING” for “BIOST@T-BINDING”, “BIOST®T-SPEED” for “BIOST@T-SPEED”

[19] = molecular target: T6, cynomolgus monkey CD38 expressed on the …; test: flow cytometry on 300.19 cynoCD38 cells (PréB cCD38)
Method: as §4, with “Clin.” for “Clin”, “μl/well” for “μL/well”, “easyCyte™” for “easvCyte™”, “BIOST®T-BINDING” for “BIOST@T-BINDING”, “BIOST®T-SPEED” for “BIOST@T-SPEED”

[20] = molecular target: T1, recombinant human CD38 (SPR of Example …); test: SPR; KD rounded to an integer; first value of the pair, taken for CD3mid
[21] = molecular target: T1, recombinant human CD38 (SPR of Example …); test: SPR (column 'KD value against rec. protein by SPR (nM)'); first value of the pair, taken for CD3mid
[22] = molecular target: T5, human CD38 expressed on the cell surface; test: flow cytometry, 'Apparent KD value against rec. cells by FACS (nM)'; single value of the mid/low row, equal to the EC50 of the CD3mid protein in FIG. 6B
Method: as §4, with “Clin.” for “Clin”, “μl/well” for “μL/well”, “easyCyte™” for “easvCyte™”, “BIOST®T-BINDING” for “BIOST@T-BINDING”, “BIOST®T-SPEED” for “BIOST@T-SPEED”

hCD38-his (SEQ ID NO: 2) [23] = molecular target: T3, hCD38-his (SEQ ID NO: 2); test: ELISA on hCD38::Histag; remark: listed apart in the source
cCD38-his (SEQ ID NO: 4) [24] = molecular target: T4, cCD38-his (SEQ ID NO: 4); test: ELISA on cynoCD38::Histag [Cont.]; remark: listed apart in the source
[25] = molecular target: T2, human CD3 (Cambridge Biologics LLC Cat …); test: ELISA on coated hCD3 γε IgG4; the arrow ends on the rightmost curve, which carries the triangles
Method: as §2, §3

Row | Binder | Kd [1] | Kd [2] | Kd [3] | EC50 (hCD38-his (SEQ ID NO: 2) [6]) | EC50 (cCD38-his (SEQ ID NO: 4) [8]) | EC50 [9] | Kd [10] | Kd [11] | EC50 [12] | EC50 [13] | Kd (hCD38-his (SEQ ID NO: 2) [14]) | koff (hCD38-his (SEQ ID NO: 2) [14]) | Kd (cCD38-his (SEQ ID NO: 4) [15]) | koff (cCD38-his (SEQ ID NO: 4) [15]) | EC50 [16] | EC50 (read off the curve) [17] | further results
1 | B1 | 6000 pM | 34000 pM | 6000 pM | – | – | – | – | – | – | – | – | – | – | – | – | – | EC50 [4]: 491 pM
2 | B2 | – | – | – | 160 pM | 150 pM | 780 pM | 780 pM | 1310 pM | 1310 pM | 0.78 nM and 0.117 µg/mL | 483 pM | 0.000283 s⁻¹ | 710 pM | 0.000129 s⁻¹ | 1310 pM | – | EC50 (hCD38-his (SEQ ID NO: 2) [5]): 160 pM; EC50 (cCD38-his (SEQ ID NO: 4) [7]): 150 pM
3 | B3 | – | – | – | – | – | – | – | – | – | – | – | – | – | – | – | ~3000 pM | EC50 [18]: 11 nM and 1.67 µg/mL; EC50 [19]: 17 nM and 2.53 µg/mL; Kd [20]: 4000 pM; Kd [21]: 4000 pM; Kd [22]: 11000 pM
4 | B4 | – | – | – | 140 pM | 140 pM | 680 pM | 680 pM | 1070 pM | 1060 pM | 0.68 nM and 0.102 µg/mL | 312 pM | 0.000333 s⁻¹ | 563 pM | 0.000125 s⁻¹ | 1.06 nM and 0.16 µg/mL | – | EC50 (hCD38-his (SEQ ID NO: 2) [23]): 140 pM; EC50 (cCD38-his (SEQ ID NO: 4) [24]): 140 pM
5 | B5 | 6000 pM | 4000 pM | 6000 pM | – | – | – | – | – | – | – | – | – | – | – | – | ~6000 pM | EC50 [25]: 1040 pM

Source: patent US20220041746A1 (Sanofi, published 2022)
